The values below come from patent US7053044B1, “Artificial peptides having surface activity and the use thereof in the preparation of artificial surfactant” (Chiesi Farmaceutici S.p.A., priority 1999, dated 2006).

Data set [1] can be described thus: Peptide secondary structure by circular dichroism (CD) spectroscopy. Format: physicochemical. How it is done:
Peptide secondary structure was investigated using circular dichroism (CD) spectroscopy (Jasco-720 Jasco, Japan). After solubilisation with triflouroethanol (TFE) spectra were recorded from 260 to 184 nm with a scan speed of 20 nm/min and a resolution of 2 data points/nm. The residual molar ellipticy was calculated and expressed in kdeg×cm^2/dmol. Molar ellipticities at 208 and 222 nm were utilised for estimating the content of helical structure (Barrow, C. J. et al. (1992) J. Mol. Biol. 225, 1075–1093).

Data set [2] is described as follows: Preparation of peptide/lipid mixtures (attainable lipid concentration). The data set is classed as physicochemical. The note with it: polypeptide/lipid ratio of 0.03. How it is done: DPPC, PG and PA were all purchased from Sigma Chemical Co. (St Louis, Mo.). The lipids, dissolved in chloroform/methanol 98:2 (v/v), were mixed in the proportions DPPC:PG:PA 68:22:9 (w/w/w) or DPPC/PG 7:3 (w/w). Surfactant preparations were prepared by adding SP-C(LKS) alone or SP-C(LKS) and SP-B, to each of the lipid mixtures, at total polypeptide/lipid weight ratios of 0–0.05. The mixtures were evaporated under nitrogen and resuspended in 150 mmol/l NaCl or in 10 mmol/l Hepes buffer pH 6,9 containing 140 mmol/l NaCl and 2.0 mmol/l CaCl2, at lipid concentrations of 10–80 mg/ml. Repeated freezing and sonication (50 W, 48 kHz) were performed until homogeneous suspensions were achieved. In some cases the final suspensions were incubated at 45° C. for 1 h.

Data set [3] can be described thus: SDS-PAGE (oligomer formation). The data set is classed as physicochemical. The text has this: The purity of the peptide was checked by sodium-dodecylsulphate (SDS) polyacrylamide gel electrophoresis (PAGE) (Phast-system, Pharmacia, Sweden) and by reversed phase high performance liquid chromatography (HPLC), using a C18 column and a linear gradient of 60% aqueous methanol/0.1% TFA and isopropanol/0.1% TFA (Gustafsson, M. et al. (1997) Biochem. J. 326, 799–806).

Data set [4] can be described thus: Surface film stability, captive bubble system. Conditions: surfactant mixtures, samples containing 5% of peptide. The data set is classed as physicochemical. How it is done:
In an even more preferred embodiment of the invention, surfactant mixtures containing the peptide in which palmitoyl chains are O-covalently linked to the Ser residues should be used. […] In the samples containing 5% of dipalmitoylated peptide, the γmin was below 1.5 mN/m and the films very stable, as the surface tension increased by less than 0.5 mN/m within 10 min at constant bubble volume.

For data set [5] the following is noted: Nilsson, G. et al. (1998) Eur. J. Biochem. 255, 116–124; cited from earlier work.
Data set [6] concerns the molecule itself. Put plainly: SDS-PAGE, self-association (oligomerisation).

Ends that are not written are not given here.

As to “FGIPSSPVHLKRLLILKLLLLKILLLKLGALLMGL [SP-C(LKS), SP-C analogue: Val 16–28 replaced with Leu, Lys at 17, 22, 27, Cys 5 and 6 replaced with Ser]”, the α-helical content result in data set [1] (solubilised in TFE, estimated from the 208 nm and 222 nm minima) is recorded as “approximately 75%”. For the same molecule, the “secondary structure on dilution” value in data set [1] (stepwise dilution with H2O until 12% TFE, peptide solubilized in neat TFE) is given as “remained stable”. In data set [2], the “lipid concentration of peptide/lipid mixture that could be made” value turned out to be 80 mg/mL. Further, in data set [3], the “SDS-PAGE pattern (oligomerisation)” value is recorded as “single band”.

In the case of “SP-C(Leu): reference peptide; transmembranous SP-C analogue with all helical Val residues replaced with Leu (Nilsson et al.) (FGIPSSPVLKRLLILLLLLLLILLLILGALLMGL)”, the “γmin (captive bubble system)” value in data set [4] was “approx. 5 mN/m”. The “highest concentration of lipid-peptide mixture that can be prepared / solubilized” value in data set [5] was not above 20 mg/mL. Moreover, the “SDS-PAGE pattern (oligomerisation)” value in data set [3] is “forms oligomers”.

B1: SP-C(LKS) (peptide)
peptide: FGIPSSPVHLKRLLILKLLLLKILLLKLGALLMGL
modifications: ends and bridges not checked
notes: The non-acylated form was run in SDS-PAGE; also called analogue of SP-C
For B1, the binding result in data set [6] is on record as “no binding”.
